{
  "source": "patent US20210122788A1",
  "about": "(published 2021)",
  "assay_in_all_cases": "FACS binding to EL4 cells",
  "key": {"[1]": {"target": "T1, human BTLA, wild-type, on cells (human, UniProt Q7Z6A9 31-289)"}, "[2]": {"target": "T2, human CD160 on cells (human, UniProt O95971 25-159)", "T2 chain": "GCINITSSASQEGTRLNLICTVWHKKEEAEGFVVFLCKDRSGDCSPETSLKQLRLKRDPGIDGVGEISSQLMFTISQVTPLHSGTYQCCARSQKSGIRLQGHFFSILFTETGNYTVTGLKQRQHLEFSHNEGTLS"}, "[3]": {"target": "T1, human BTLA, wild-type, on cells", "remark": "listed apart in the source"}, "[4]": {"target": "T2, human CD160 on cells"}},
  "note": "Where two headings read alike, the source gives them in different places.",
  "data": [
    {"binder": "human HVEM Fc (Fc fusion) LPSCKEDEYPVGSECCPKCSPGYRVKEACGELTGTVCEPCPPGTYIAHLNGLSKCLQCQMCDPAMGLRASRNCSRTENAVCGCSPGHFCIVQDGDHCAACRAYATSSPGQRVQKGGTESQDTLCQNCPPGTFSPNGTLEECQHQTKCSWLVTKAGAGTSSSHWV", "values": [
      {"measurement": "EC50", "setting": "[1]", "result": 8.7, "unit": "µg/mL"},
      {"measurement": "EC50", "setting": "[2]", "result": 5.1, "unit": "µg/mL"},
      {"measurement": "EC50", "setting": "[3]", "result": 8.7, "unit": "µg/mL"},
      {"measurement": "EC50", "setting": "[4]", "result": 5.1, "unit": "µg/mL"}
    ]}
  ]
}
